Positions count from the first letter of the chain named.
B1: hIL12Rb1_VHH17 (VHH)
VHH: QVQLQESGGGSVQAGGFLRLSCVASGYGYCGYDMSWYRQVPGKEREFVALITSDRSVSYEDSVKGRFSISRDNAKNTAYLEMNRLTPDDTAIYYCKTSTAARENNWCRSRYRIASWGQGTQVTVSS
notes: Camel VHH
B2: hIL12Rb1_VHH1 (VHH)
VHH: QVQLQESGGGSVQAGGSLRLSCVASGYGYCGYDMSWYRQAPGKEREFVALITSDRSISYEDSVKARFIISRDNAANTGYLDMTRLTPDDTAIYYCKTSAAARESSWCRSRYRVASWGQGTQVTVSS
notes: Camel VHH
B3: hIL12Rb1_VHH22 (VHH)
VHH: QVQLQESGGGSVQAGGSLRLSCTASGYTYSSAFMAWFRQAPGKEREGVAAIYTRDGGTVYADSVKGRFTISQDNAKNTLYLQMNSLKAEDTAMYYCAAKIPQPGRASLLDSQTYDYWGQGTQVTVSS
notes: Camel VHH
B4: hIL12Rb1_VHH12 (VHH)
VHH: B3 VHH with A88P, I100M
notes: Camel VHH
B5: hIL12Rb1_VHH21 (VHH)
VHH: B3 VHH with I51M, A88T
notes: Camel VHH
B6: hIL12Rb1_VHH16 (VHH)
VHH: B3 VHH with I51M, M83I, N84H, S85T
notes: Camel VHH
B7: hIL12Rb1_VHH20 (VHH)
VHH: B3 VHH with G57S, T58P, V64L, Y80H, A88P, Q102E, A106I, Q119H
notes: Camel VHH
B8: hIL12Rb1_VHH2 (VHH)
VHH: B3 VHH with T78I
notes: Camel VHH
B9: hIL12Rb1_VHH10 (VHH)
VHH: QVQLQESGGGSVQAGGSLRLSCAVSGYDYCGYDVRWYRQAPGKEREFVSGIDSDGSTSYADSVKGRFTISQDNAENTSYLHMFSLKPEDTAMYYCKTESPAGESAWCRNFRGMDYWGKGTQVTVSS
notes: Camel VHH
B10: hIL12Rb1_VHH11 (VHH)
VHH: B9 VHH
notes: Camel VHH
B11: hIL12Rb1_VHH15 (VHH)
VHH: B9 VHH with D52N
notes: Camel VHH
B12: hIL12Rb1_VHH7 (VHH)
VHH: B9 VHH with Q39R
notes: Camel VHH
B13: hIL12Rb1_VHH19 (VHH)
VHH: B9 VHH with D52N, S99G
notes: Camel VHH
B14: hIL12Rb1_VHH14 (VHH)
VHH: B9 VHH with Q39R
notes: Camel VHH
B15: mIL12Rb1_VHH19 (VHH)
VHH: B1 VHH
notes: Camel VHH
B16: mIL12Rb1_VHH20 (VHH)
VHH: B2 VHH with A40T, S56I, I57A, A65G, A75K, L85V, S104N
notes: Camel VHH
B17: mIL12Rb1_VHH15 (VHH)
VHH: B1 VHH with I92V, S115Y
notes: Camel VHH
B18: mIL12Rb1_VHH8 (VHH)
VHH: B2 VHH with S17F, D54E, S56V, A65G, I68S, A75E, D81E, T83N
notes: Camel VHH
B19: mIL12Rb1_VHH9 (VHH)
VHH: B2 VHH
notes: Camel VHH
B20: mIL12Rb1_VHH1 (VHH)
VHH: B3 VHH
notes: Camel VHH
B21: mIL12Rb1_VHH18 (VHH)
VHH: B3 VHH with I51M, A88T
notes: Camel VHH
B22: mIL12Rb1_VHH17 (VHH)
VHH: B3 VHH with I51M, M83I, N84H, S85T
notes: Camel VHH
B23: mIL12Rb1_VHH23 (VHH)
VHH: B3 VHH with A88P, I100M
notes: Camel VHH
B24: mIL12Rb1_VHH6 (VHH)
VHH: B3 VHH with G57S, T58P, V64L, Y80H, A88P, Q102E, A106I, Q119H
notes: Camel VHH
B25: mIL12Rb1_VHH22 (VHH)
VHH: B3 VHH with T78I
notes: Camel VHH
B26: mIL12Rb1_VHH4 (VHH)
VHH: QVQLQESGGGSVQAGGSLRLSCAASRYTYTNNFMAWFRQAPGKEREGVAAIYTGDGYAYYFDSVKGRFTISQDNDKNMLYLQMNSLKPEDTAMYYCAAMERRSGRRRMTENAEYKYWGQGTQVTVSS
notes: Camel VHH
B27: mIL12Rb1_VHH12 (VHH)
VHH: B26 VHH with D62Y, K76E, S103I, R105T
notes: Camel VHH
B28: mIL12Rb1_VHH10 (VHH)
VHH: B9 VHH
notes: Camel VHH
B29: mIL12Rb1_VHH2 (VHH)
VHH: B9 VHH
notes: Camel VHH
B30: mIL12Rb1_VHH14 (VHH)
VHH: B9 VHH with D52N
notes: Camel VHH
B31: mIL12Rb1_VHH16 (VHH)
VHH: B9 VHH with D52N, S99G
notes: Camel VHH
B32: mIL12Rb1_VHH21 (VHH)
VHH: B9 VHH with Q39R
notes: Camel VHH
B33: mIL12Rb1_VHH7 (VHH)
VHH: B9 VHH with Q39R
notes: Camel VHH
B34: mIL12Rb1_VHH5 (VHH)
VHH: QVQLQESGGGSVQAGETLRLSCTVSGFTIDDSEMGWYRQAPGHECELVASGSSDDDTYYVDSVKGRFTISLDNAKNMVYLQMNSLKPEDTAVYYCATGPTYPPKDGDCAHWGQGTQVTVSS
notes: Camel VHH
B35: mIL12Rb1_VHH3 (VHH)
VHH: QVQLQESGGGSVQAGGSLRLSCVASGYSYCGYDMMWYRQAPGKEREFVALITSDYSIRYEDSVEGRFSISRDNAKNTGYLLMSNLTPADTAIYYCKTSTAARESSWCRSRYRVASWGQGTQVTVSS
notes: Camel VHH
B36: mIL12Rb1_VHH11 (VHH)
VHH: B35 VHH
notes: Camel VHH
B37: mIL12Rb1_VHH13 (VHH)
VHH: B35 VHH with S105G
notes: Camel VHH

Each binder was assayed against T1, extracellular domain of human IL12RB1 (hIL12Rb1 ECD antigen) (human, UniProt P42701 24-545) (assay: periplasmic extract ELISA on antigen-coated plate after phage biopanning).
T1 construct: also called IL12Rβ1; CD212
Experimental: (§1) Upon completion of the biopanning of Example 3, three 96-well plates of individual phage clones were isolated in order to perform periplasmic extract ELISA (PE-ELISA) on IL12Rb1 coated plates to identify positive VHH binders that selectively bound IL12Rb1. A 96-well plate was coated with IL12Rb1 and PBS under the same conditions. Next, wells were blocked at 37° ° C. for 1 h. Then, 100 μl of extracted antibodies was added to each well and incubated for 1 h. Subsequently, 100 μl of anti-tag polyclonal antibody conjugated to HRP was added to each well and incubated at 37 °C for 1 h. Plates were developed with TMB substrate. The reaction was stopped by the addition of H2SO4. Absorbance at 450 nm was read on a microtiter plate reader. Antibodies with absorbance of the antigen-coated well at least threefold greater than PBS-coated control are VHHs that specifically bind to IL12Rb1. Positive clones were sequenced, and sequences analyzed to identify unique clonotypes.
B1: binds.
B2: binds.
B3: binds.
B4: binds.
B5: binds.
B6: binds.
B7: binds.
B8: binds.
B9: binds.
B10: binds.
B11: binds.
B12: binds.
B13: binds.
B14: binds.

The binders below were run against T2, extracellular domain of mouse IL12RB1 (mIL12Rb1 ECD antigen) (mouse, UniProt Q60837 20-565) in the same assay as above.
T2 construct: also called murine IL12RB1
T2 sequence: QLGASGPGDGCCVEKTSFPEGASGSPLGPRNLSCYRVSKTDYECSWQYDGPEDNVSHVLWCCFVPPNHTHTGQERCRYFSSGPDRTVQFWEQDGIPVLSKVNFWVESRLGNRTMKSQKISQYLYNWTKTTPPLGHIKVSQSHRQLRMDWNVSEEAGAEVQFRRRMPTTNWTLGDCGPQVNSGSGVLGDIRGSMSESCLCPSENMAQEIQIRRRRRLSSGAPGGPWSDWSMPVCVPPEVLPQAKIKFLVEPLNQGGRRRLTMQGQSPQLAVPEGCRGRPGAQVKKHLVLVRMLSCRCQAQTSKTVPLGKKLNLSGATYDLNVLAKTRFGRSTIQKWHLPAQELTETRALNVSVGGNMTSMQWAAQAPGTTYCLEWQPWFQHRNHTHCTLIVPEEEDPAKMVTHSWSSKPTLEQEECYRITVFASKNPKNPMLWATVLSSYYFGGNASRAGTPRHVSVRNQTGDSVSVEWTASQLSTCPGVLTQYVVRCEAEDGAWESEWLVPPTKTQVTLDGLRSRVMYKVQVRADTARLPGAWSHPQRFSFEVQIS
Experimental: as §1
B15: binds.
B16: binds.
B17: binds.
B18: binds.
B19: binds.
B20: binds.
B21: binds.
B22: binds.
B23: binds.
B24: binds.
B25: binds.
B26: binds.
B27: binds.
B28: binds.
B29: binds.
B30: binds.
B31: binds.
B32: binds.
B33: binds.
B34: binds.
B35: binds.
B36: binds.
B37: binds.

— US20240166754A1 (SYNTHEKINE, published 2024)
